From patent US20240115722A1 (RUTGERS THE STATE UNIVERSITY OF NEW JERSEY, published 2024)
Where two headings read alike, the source gives them in different places.

Legend:
[1] = target: T1, recombinant human EphA5 (rhEphA5) antigen (human, UniProt P54756 25-573); experiment: SPR multi-cycle kinetics (Biacore T200), purified IgG captured on anti-human IgG CM5 chip, recombinant EphA5 as analyte, 1:1 fit
T1 construct: also called human EphA5 (R and D systems, Cat. No. 3036-A5); recombinant EphA5
Protocol: HBS-P+(GE Healthcare, Uppsala, Sweden), supplemented with 1% BSA w/v (Sigma, Dorset, UK) was used as running buffer as well as for ligand and analyte dilutions. Purified lead antibodies were diluted to 0.5 μg/mL in running buffer and at the start of each cycle, loaded onto Fc2, Fc3 and Fc4 of an anti-human IgG CM5 sensor chip (GE Healthcare, Little Chalfont, UK). […] The surface was then allowed to stabilize.
Multi-cycle kinetic data was obtained using recombinant EphA5 as the analytes injected at a flow rate of 30 μl/min to minimize any potential mass transfer effects. […] For each concentration, the association phases were monitored for 210 seconds and the dissociation phase was measured for 900 seconds. Regeneration of the sensor chip surface was conducted between cycles using two injections of 3 M MgCl2. Multiple repeats of a blank and of EphA5 were programmed into the kinetic run in order to check the stability of both the surface and analyte over the kinetic cycles.
The signal from the reference channel Fc1 (no IgG captured) was subtracted from that of Fc2, Fc3 and Fc4 to correct for bulk effect and differences in non-specific binding to a reference surface. The signal from each IgG blank run (IgG captured but no antigen) was subtracted to correct for differences in surface stability. The double referenced sensorgrams were fitted with the Langmuir (1:1) binding model where the closeness of fit of the data to the model is evaluated using the Chi square value which describes the deviation between the experimental and fitted (observed and expected) curves. The fitting algorithm seeks to minimize the Chi square value.

[2] = target: T1, recombinant human EphA5 (rhEphA5) …; experiment: SPR single-cycle kinetics (Biacore T200), IgG from HEK supernatant captured on anti-human IgG CM5 chip, rhEphA5 as analyte, 1:1 fit; set-up: Relative KD: reference not given here
Protocol: Kinetic analysis was carried out on a Biacore T200. Each antibody was captured on a CM5 chip coupled with an anti-human IgG using standard amine chemistry before increasing concentrations of antigen were injected and a single off-rate was determined.
Kinetic experiments were performed at 25° C. on a Biacore T200 running Biacore T200 Control software V2.0.1 and Evaluation software V3.0 (Cytiva, Uppsala, Sweden).
HBS-P+ (Cytiva, Uppsala, Sweden), supplemented with 1% BSA (Sigma, Dorset, UK) was used as running buffer as well as for ligand and analyte dilutions. Supernatants containing IgG were diluted in running buffer to 1 μg/mL. At the start of each cycle, antibodies were loaded onto Fc2, Fc3 and Fc4 of an anti-human IgG CM5 sensor chip (Cytiva, Little Chalfont, UK). Ig were captured at a flow rate of […] to give an immobilization level (RL) of ˜60 RU. The surface was then allowed to stabilize.

[3] = target: T2, human EPH receptor A5 (EphA5) expressed on cells (human, UniProt P54756 25-1037); experiment: flow cytometry on H460 (EphA5+) cells, starting assay concentration 10 µg/mL
T2 construct: Cell line (H460 stably expressing EphA5; HEK-293T transfected with EPHA5 clone or wild-type construct; lung cancer lines with endogenous or variable expression); also called cell-surface EphA5; wild-type target protein
T2 sequence (P54756 25-1037 limits assumed): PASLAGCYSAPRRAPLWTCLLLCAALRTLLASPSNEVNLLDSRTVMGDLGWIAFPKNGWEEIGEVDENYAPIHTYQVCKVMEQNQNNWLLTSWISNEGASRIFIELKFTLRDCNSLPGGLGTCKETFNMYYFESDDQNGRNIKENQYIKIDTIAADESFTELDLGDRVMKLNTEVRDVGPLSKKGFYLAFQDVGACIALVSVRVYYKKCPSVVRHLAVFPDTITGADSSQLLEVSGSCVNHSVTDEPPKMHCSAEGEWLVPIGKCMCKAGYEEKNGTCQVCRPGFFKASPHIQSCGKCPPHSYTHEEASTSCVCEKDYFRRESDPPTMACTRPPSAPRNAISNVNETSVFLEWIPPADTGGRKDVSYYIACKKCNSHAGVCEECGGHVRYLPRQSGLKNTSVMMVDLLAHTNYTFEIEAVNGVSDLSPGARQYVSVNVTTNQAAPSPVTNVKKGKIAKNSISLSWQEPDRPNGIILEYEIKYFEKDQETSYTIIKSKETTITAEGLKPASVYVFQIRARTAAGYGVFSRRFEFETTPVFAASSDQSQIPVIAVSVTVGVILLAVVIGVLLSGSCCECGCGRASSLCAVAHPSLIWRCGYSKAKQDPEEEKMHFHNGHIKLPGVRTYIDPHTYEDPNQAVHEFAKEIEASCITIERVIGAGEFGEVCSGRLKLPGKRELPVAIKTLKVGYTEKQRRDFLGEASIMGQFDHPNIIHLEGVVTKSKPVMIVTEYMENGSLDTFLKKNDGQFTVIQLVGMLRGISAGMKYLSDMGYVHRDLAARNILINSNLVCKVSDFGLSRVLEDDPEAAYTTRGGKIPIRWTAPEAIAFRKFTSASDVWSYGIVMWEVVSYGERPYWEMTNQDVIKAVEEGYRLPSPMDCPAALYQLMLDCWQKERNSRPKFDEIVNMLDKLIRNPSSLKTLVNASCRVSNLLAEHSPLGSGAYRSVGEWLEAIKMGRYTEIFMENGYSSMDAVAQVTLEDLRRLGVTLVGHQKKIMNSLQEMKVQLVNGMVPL
Protocol: Samples were prepared at a starting concentration of 10 μg/ml in FACS buffer and underwent a four-fold seven point serial dilution for testing with H460 cells and a three-fold three point serial dilution for the H226 cells. Cell pellets were resuspended in 100 μl of the serially diluted samples and incubated at 4° C. for 30 minutes. After the incubation, cells were pelleted, washed twice with 100 μl of FACS buffer and resuspended in either Alexa Fluor 647 anti-mouse or anti-human (Thermo Fisher) diluted to 5 μg/ml in FACS buffer. After incubation at 4° C. for 30 minutes, cells were pelleted, washed twice with 100 μl of FACS buffer and resuspended in 200 μl per well 1×BD CellFix solution (BD Pharmingen, Berkshire, UK). Median fluorescence intensity (MFI) was measured using an Attune NxT Flow Cytometer (Thermo Fisher, Loughborough, UK) and 10,000 gated events were acquired per sample. For data analysis, live cell populations were gated based on the forward and side scatter dot plot allowing the Alexa Fluor 647 MFI values to be measured in the RL1 channel.

[4] = target: T1, recombinant human EphA5 (rhEphA5) …; experiment: SPR (Biacore T200), IgG captured on anti-human IgG chip, rhEphA5 as analyte, 1:1 fit; table does not say single- or multi-cycle
FCGR1A [5] = target: T3, FCGR1A (human, UniProt P12314); experiment: Membrane Proteome Array screen, human membrane protein clones expressed in cells, flow cytometry (Table E4: HEK-293T, antibody 20 µg/ml)
T3 construct: clone overexpressed in live cells from an expression plasmid; Labelled point above the threshold in the Membrane Proteome Array plots of both H4K3 and H5K3
T3 sequence (P12314 16-374 limits assumed): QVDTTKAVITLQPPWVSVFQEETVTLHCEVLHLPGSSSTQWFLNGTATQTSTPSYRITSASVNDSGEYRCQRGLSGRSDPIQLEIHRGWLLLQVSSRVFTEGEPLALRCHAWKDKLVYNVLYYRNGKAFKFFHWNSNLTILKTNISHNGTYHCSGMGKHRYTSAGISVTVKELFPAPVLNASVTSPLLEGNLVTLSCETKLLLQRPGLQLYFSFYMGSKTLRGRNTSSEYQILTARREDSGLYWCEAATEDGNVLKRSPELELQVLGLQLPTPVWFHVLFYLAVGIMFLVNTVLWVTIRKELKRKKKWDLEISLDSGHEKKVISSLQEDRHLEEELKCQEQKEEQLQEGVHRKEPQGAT

FCGR1A [6] = target: T3, FCGR1A; experiment: as above; remark: listed apart in the source
[7] = target: T2, human EPH receptor A5 (EphA5) expressed …; experiment: flow cytometry on H460 (EphA5+) cells, goat anti-mouse Alexa Fluor 647 detection

T1 sequence (P54756 25-573 limits assumed): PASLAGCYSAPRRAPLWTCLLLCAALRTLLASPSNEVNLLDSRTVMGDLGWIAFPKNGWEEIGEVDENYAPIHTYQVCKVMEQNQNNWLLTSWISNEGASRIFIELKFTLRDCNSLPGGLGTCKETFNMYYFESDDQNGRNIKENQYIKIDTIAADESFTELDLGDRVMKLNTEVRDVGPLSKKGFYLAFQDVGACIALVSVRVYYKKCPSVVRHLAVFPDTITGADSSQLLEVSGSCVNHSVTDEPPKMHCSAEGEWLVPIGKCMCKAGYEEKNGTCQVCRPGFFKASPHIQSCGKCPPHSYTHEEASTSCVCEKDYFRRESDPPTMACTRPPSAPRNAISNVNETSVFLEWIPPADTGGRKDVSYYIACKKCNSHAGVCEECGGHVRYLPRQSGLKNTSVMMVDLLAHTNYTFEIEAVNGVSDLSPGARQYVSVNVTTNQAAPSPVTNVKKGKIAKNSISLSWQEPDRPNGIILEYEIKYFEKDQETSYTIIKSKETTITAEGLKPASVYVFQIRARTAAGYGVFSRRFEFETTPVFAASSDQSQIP

Row | Binder | Kd [1] [nM] | Relative KD [1] | koff [1] [s⁻¹] | Kd [2] [nM] | Relative KD [2] | koff [2] [s⁻¹] | EC50 [3] [µg/mL] | Max. Binding (MFI) [3] [MFI] | Kd [4] [nM] | koff [4] [s⁻¹] | kon [4] [M⁻¹ s⁻¹] | binding result (FCGR1A [5]) | binding result (FCGR1A [6]) | EC50 (read off the curve) [7] [µg/mL]
1 | VH4/VK3 humanized 11C12 antibody (antibody, human IgG1, kappa, Human IgG1/kappa; lead variant, tested as HEK supernatant and as purified protein; also called H4K3; EPHA5 H4K3) heavy: not shown light: DIVMTQSPDSLAVSLGERATINCKASQSVDYDGDSYMNWYQQKPGKAPKLLIYGASNLESGIPDRFSGSGSGTDFTLTISRLEPEDAAVYYCQQSNEDPFTFGQGTKLEIKRTVAAPSVFIFPPSDEQLKSGTASVVCLLNNFYPREAKVQWKVDNALQSGNSQESVTEQDSKDSTYSLSSTLTLSKADYEKHKVYACEVTHQGLSSPVTKSFNRGEC | 0.937 | 0.6 | 0.00139 | 1.04 | 0.78 | 0.00137 | 0.018 | 36700 |  |  |  |  | binds | 
2 | VH4/VK4 humanized 11C12 antibody (antibody, human IgG1, kappa, V domains shown, Human IgG1/kappa; lead variant, tested as HEK supernatant and as protein purified from CHO; also called H4K4) VH: EVQLVESGGGLVQPGGSLKLSCAASGFTFSTFGIHWVRQAPGKGLEWVAYISGASTTIYYADTVKGRFTISRDNSKNTLYLQMNSLRAEDTAVYYCARYGTSFPYGLDYWGQGTLVTVSS VL: DIVMTQSPDSLAVSLGERATINCKSSQSVDYDGDSYMNWYQQKPGKAPKLLIYGASNLESGIPDRFSGSGSGTDFTLTISRLEPEDAASYYCQQSNEDPFTFGQGTKLEIKR | 1.04 | 0.67 | 0.00132 | 1.05 | 0.79 | 0.0014 | 0.017 | 37500 |  |  |  |  |  | 
3 | anti-human EphA5 monoclonal murine antibody 11C12 (antibody, V domains shown, Full murine antibody; also called murine 11C12; mouse 11C12) VH: EVTLKESGGGLVQPGGSRKLSCAASGFTFSTFGIHWVRQAPEKGLEWVAYISGASTTIYYADTVKGRFTISRDNPKNTLFLQMTSLRSEDTAMYYCARYGTSFPYGLDYWGQGTSVTVSS VL: DIVMTQSPGSLAVSLGQRATISCKASQSVDYDGDSYMNWYQQKPGQPPKLLIYGASNLESGIPARFSGSGSGTDFTLNIHPVEEEDAASYYCQQSNEDPFTFGSGTKLEIK |  |  |  |  |  |  | 0.025 | 27300 |  |  |  |  |  | ~0.05
4 | chimeric VH0/VK0 antibody (murine 11C12 variable regions, human IgG1/kappa constant regions) (antibody, V domains shown, also called chimeric antibody) VH: EVTLKESGGGLVQPGGSRKLSCAASGFTFSTFGIHWVRQAPEKGLEWVAYISGASTTIYYADTVKGRFTISRDNPKNTLFLQMTSLRSEDTAMYYCARYGTSFPYGLDYWGQGTSVTVSS VL: DIVMTQSPGSLAVSLGQRATISCKASQSVDYDGDSYMNWYQQKPGQPPKLLIYGASNLESGIPARFSGSGSGTDFTLNIHPVEEEDAASYYCQQSNEDPFTFGSGTKLEIKR |  |  |  | 1.33 | 1 | 0.00153 | 0.015 | 35400 | 1.56 | 0.0015 | 965000 |  |  | 

Continued, values first:

Row | Kd [1] [nM] | Relative KD [1] | koff [1] [s⁻¹] | Kd [2] [nM] | Relative KD [2] | koff [2] [s⁻¹] | EC50 [3] [µg/mL] | Max. Binding (MFI) [3] [MFI] | Kd [4] [nM] | koff [4] [s⁻¹] | kon [4] [M⁻¹ s⁻¹] | binding result (FCGR1A [5]) | binding result (FCGR1A [6]) | EC50 (read off the curve) [7] [µg/mL] | Binder
5 | 1.08 | 0.69 | 0.00142 | 0.956 | 0.72 | 0.00128 | 0.018 | 36500 |  |  |  |  |  |  | VH3/VK4 humanized 11C12 antibody (antibody, human IgG1, kappa, Human IgG1/kappa; lead variant, tested as HEK supernatant and as protein purified from CHO; also called H3K4) heavy: not shown light: DIVMTQSPDSLAVSLGERATINCKSSQSVDYDGDSYMNWYQQKPGKAPKLLIYGASNLESGIPDRFSGSGSGTDFTLTISRLEPEDAASYYCQQSNEDPFTFGQGTKLEIKRTVAAPSVFIFPPSDEQLKSGTASVVCLLNNFYPREAKVQWKVDNALQSGNSQESVTEQDSKDSTYSLSSTLTLSKADYEKHKVYACEVTHQGLSSPVTKSFNRGEC
6 | 0.934 | 0.6 | 0.00125 | 0.892 | 0.67 | 0.00123 | 0.017 | 36900 |  |  |  |  |  |  | VH5/VK2 humanized 11C12 antibody (antibody, human IgG1, kappa, V domains shown, Human IgG1/kappa; lead variant, tested as HEK supernatant and as protein purified from CHO; also called H5K2) VH: EVQLVESGGGLVQPGGSLKLSCAASGFTFSTFGIHWVRQAPGKGLEWVAYISGASTTIYYADSVKGRFTISRDNSKNTLYLQMNSLRAEDTAVYYCARYGTSFPYGLDYWGQGTLVTVSS VL: DIVMTQSPDSLAVSLGERATINCKASQSVDYDGDSYMNWYQQKPGKAPKLLIYGASNLESGIPDRFSGSGSGTDFTLTISRLEPEDAASYYCQQSNEDPFTFGQGTKLEIKR
7 |  |  |  | 1.03 | 0.77 | 0.0014 | 0.019 | 36500 | 1.11 | 0.00135 | 1.21e+06 | binds |  |  | VH5/VK3 humanized 11C12 antibody (antibody, human IgG1, kappa, Human IgG1/kappa; lead variant, tested as HEK supernatant and as purified protein; also called H5K3; EPHA5 H5K3) heavy: not shown light: DIVMTQSPDSLAVSLGERATINCKASQSVDYDGDSYMNWYQQKPGKAPKLLIYGASNLESGIPDRFSGSGSGTDFTLTISRLEPEDAAVYYCQQSNEDPFTFGQGTKLEIKRTVAAPSVFIFPPSDEQLKSGTASVVCLLNNFYPREAKVQWKVDNALQSGNSQESVTEQDSKDSTYSLSSTLTLSKADYEKHKVYACEVTHQGLSSPVTKSFNRGEC
8 | 1.04 | 0.67 | 0.00128 | 1.04 | 0.78 | 0.00141 | 0.018 | 35900 |  |  |  |  |  |  | VH5/VK4 humanized 11C12 antibody (antibody, human IgG1, kappa, V domains shown, Human IgG1/kappa; lead variant, tested as HEK supernatant and as protein purified from CHO; also called H5K4) VH: EVQLVESGGGLVQPGGSLKLSCAASGFTFSTFGIHWVRQAPGKGLEWVAYISGASTTIYYADSVKGRFTISRDNSKNTLYLQMNSLRAEDTAVYYCARYGTSFPYGLDYWGQGTLVTVSS VL: DIVMTQSPDSLAVSLGERATINCKSSQSVDYDGDSYMNWYQQKPGKAPKLLIYGASNLESGIPDRFSGSGSGTDFTLTISRLEPEDAASYYCQQSNEDPFTFGQGTKLEIKR
